A short description of series [1]: western blot of exogenous eIF4E, Huh7. As to conditions: glycan lost; control: wild-type eIF4E. A general note: A western blot detects proteins with antibodies after separation by electrophoresis.
Series [2] is described as follows: Flag IP, anti-ubiquitin blot, MG132-treated Huh7. The settings on record: glycan lost; control: wild-type eIF4E.
Series [3] in a line: cycloheximide chase, western blot, Huh7. As to conditions: glycan lost; control: wild-type eIF4E.
A short description of series [4]: western blot of eIF4E, Huh7 and PLC/PRF/5. The settings on record: glycan lost; control: control shRNA.

On to “eukaryotic initiation factor 4E (eIF4E): T177A”, for which the expression_or_secretion entry in series [1] was “decreases”. Also, in series [2], the “other: ubiquitination” value is recorded as “increases”. For the same substance, the degradation_or_half_life entry in series [3] is given as “decreases”.
For the substance “eukaryotic initiation factor 4E (eIF4E): OGT shRNA1 / OGT shRNA2”, the expression_or_secretion result in series [4] is on record as “decreases”.
On to “eukaryotic initiation factor 4E (eIF4E): T168,177A”, for which, in series [1], the expression_or_secretion result is given as “decreases”. Moreover, the “other: ubiquitination” value in series [2] is recorded as “increases”. Further, the degradation_or_half_life entry in series [3] is “decreases”.
With “eukaryotic initiation factor 4E (eIF4E): T168A”, the expression_or_secretion entry in series [1] is on record as “decreases”. In addition, in series [2], the “other: ubiquitination” value is on record as “increases”. Besides, the degradation_or_half_life result in series [3] is given as “decreases”.

For the origin of these results see paper PMC6433694.
